Measured values taken from patent publication US20230060095A1 (Regeneron, published 2023).
Numbering of substitutions follows the chain as printed.

B1: PN42707 (TCR, V domains shown)
V domain 1: GESVGLHLPTLSVQEGDNSIINCAYSNSASDYFIWYKQESGKGPQFIIDIRSNMDKRQGQRVTVLLNKTVKHLSLQIAATQPGDSAVYFCAENKRDNYGQNFVFGPGTRLSVLP
V domain 2: EAQVTQNPRYLITVTGKKLTVTCSQNMNHEYMSWYRQDPGLGLRQIYYSMNVEVTDKGDVPEGYKVSRKEKRNFPLILESPSPNQTSLYFCASSFWVNTEAFFGQGTRLTVV
B2: PN42762 (TCR, V domains shown)
V domain 1: DAKTTQPNSMESNEEEPVHLPCNHSTISGTDYIHWYRQLPSQGPEYVIHGLTSNVNNRMASLAIAEDRKSSTLILHRATLRDAAVYYCILNTGTASKLTFGTGTRLQVTL
V domain 2: B1 V domain 2 with F95L, W96S, V97S
B3: PN42746 (TCR, V domains shown)
V domain 1: B1 V domain 1 with K94R, R95Q
V domain 2: B1 V domain 2 with F95L
B4: PN42774 (TCR, V domains shown)
V domain 1: QKEVEQNSGPLSVPEGAIASLNCTYSDRGSQSFFWYRQYSGKSPELIMSIYSNGDKEDGRFTAQLNKASQYVSLLIRDSQPSDSATYLCAVNRGTDKLIFGTGTRLQVFP
V domain 2: DAGVTQSPTHLIKTRGQQVTLRCSPKSGHDTVSWYQQALGQGPQFIFQYYEEEERQRGNFPDRFSGHQFPNYSSELNVNALLLGDSALYLCASSWTDYGYTFGSGTRLTVV
B5: PN42795 (TCR, V domains shown)
V domain 1: RKEVEQDPGPFNVPEGATVAFNCTYSNSASQSFFWYRQDCRKEPKLLMSVYSSGNEDGRFTAQLNRASQYISLLIRDSKLSDSATYLCVVNGGSQGNLIFGKGTKLSVKP
V domain 2: B4 V domain 2 with W95V, T96G
B6: PN42712 (TCR, V domains shown)
V domain 1: GIQVEQSPPDLILQEGANSTLRCNFSDSVNNLQWFHQNPWGQLINLFYIPSGTKQNGRLSATTVATERYSLLYISSSQTTDSGVYFCAVGSSNDYKLSFGAGTTVTVRA
V domain 2: EAQVTQNPRYLITVTGKKLTVTCSQNMNHEYMSWYRQDPGLGLRQIYYSMNVEVTDKGDVPEGYKVSRKEKRNFPLILESPSPNQTSLYFCASSPGTGGFSPLHFGNGTRLTVT
B7: PN42711 (TCR, V domains shown)
V domain 1: B6 V domain 1 with A17V, Q78R, D94G
V domain 2: B6 V domain 2

Molecular target: HLA-A2/PRAME (425-433) on HLA-A2*01 HEK293T cells pulsed with PRAME 425-433 peptide (human)
Assay: cell-based or functional assay

Binder | EC50 (µM) of peptide, AP1 luciferase reporter in Jurkat cells expressing the TCR [µM]
B1 | 0.0118
B2 | 115
B3 | 0.046
B4 | 0.876
B5 | 0.245
B6 | 0.0133
B7 | 0.0569

Molecular target: T1, PRAME peptide on HLA-A*02:01 (human)
T1 peptide: SLLQHLIGL
Assay: multimer staining

Binder | binding result
B1 | recognises
B2 | recognises
B3 | recognises
B4 | recognises
B5 | recognises
B6 | recognises
B7 | recognises

Molecular target: T2, peptide on HLA-A*02:01 (human)
T2 peptide: SLLMWITQC
Assay: activation reporter or marker

Binder | binding result
B1 | no recognition
B2 | no recognition
B3 | no recognition
B4 | no recognition
B5 | no recognition
B6 | no recognition
B7 | no recognition

Molecular target: T3, soluble HLA:A2:PRAME (425-433) tetramer (human)
T3 construct: Commercial tetramer (MBL International); construct limits, biotin tag and streptavidin/fluorophore not described; also called PRAME/HLA tetramer reagent; PRAME (425-433)/HLA-A2
Assay: flow cytometry, soluble pMHC tetramer on CHO cells expressing the TCR;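 note: CHO cells transfected with vectors encoding full-length paired TCR alpha and beta chains, stained with PRAME/HLA tetramer and read by flow cytometry, each value reflects one listed TCR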

Binder | Cell Frequency ≥1000 MFI, ≥1% (% tetramer positive cells in the Ag+ gate) [%]
B1 | 7.28
B2 | 4.95
B3 | 4.39
B4 | 91.6
B5 | 49.4
B6 | 80.7
B7 | 4.26
